The sequences below were run on MCF10A (assay: one-nucleolus phenotype percent effect (relative to siNT 0% and siNOL11 100%); higher = more cells with one nucleolus (ribosome biogenesis inhibition)). Conditions: 20 nM; 72 h.
Protocol: (§1)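 After 72 h, cells were fixed and stained with Hoechst and anti-fibrillarin, and nucleoli per nucleus were counted with CellProfiler. Values are plate-adjusted percent effect for the one-nucleolus and 5+ nucleoli phenotypes, normalised to siNT (0%) and to the positive controls siNOL11 or siKIF11 (100%), as the mean of biological triplicates. Percent viability is the nuclei count relative to siNT.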

Sequence | one-nucleolus phenotype percent effect [%]
UGUAGGCAUGAGGCAGGGCCCAGG [hsa-miR-6806-5p] | -16.3
UUGGGCCCAGGAGUAAACAGGAU [hsa-miR-6773-5p] | -0.04
CUUCCAGACGCUCCGCCCCACGUCG [hsa-miR-3180-5p] | -9.39
UAGUACUGUGCAUAUCAUCUAU [hsa-miR-1278] | -1.62
GCCGGACAAGAGGGAGG [hsa-miR-4442] | -19.9
UUCCCUUUGUCAUCCUUCGCCU [hsa-miR-211-5p] | -7.23
ACAUACUUCUUUAUAUGCCCAU [hsa-miR-1-5p] | 11.9
GUUCCUGCUGAACUGAGCCAG [hsa-miR-3074-5p] | -7.07
UUUCCUACCCUACCUGAAGACU [hsa-miR-3685] | 16.6
GAGUUCUACAGUCAGAC [hsa-miR-3168] | -2.63
CGGUGAGCGCUCGCUGGC [hsa-miR-4792] | 21.1
UUCCGCCAGUCGGUGGCCGG [hsa-miR-6084] | -5.3
UGAGUGAUUGAUAGCUAUGUUC [hsa-miR-4765] | -19.8
AUAUAAUACAACCUGCUAAGUG [hsa-miR-374b-5p] | -13.3
UUAUAAAGCAAUGAGACUGAUU [hsa-miR-340-5p] | 47.7
AGGCCCUGUCCUCUGCCCCAG [hsa-miR-6775-3p] | 12.8
GCCCUGAACGAGGGGUCUGGAG [hsa-miR-345-3p] | -13.5
GAUGAUGAUGGCAGCAAAUUCUGAAA [hsa-miR-1272] | 8.72
CCUCUGGGCCCUUCCUCCAG [hsa-miR-326] | 56.9
AAUUCUGUAAAGGAAGAAGAGG [hsa-miR-4778-5p] | -8.03

Sequence | one-nucleolus phenotype percent effect [%]
GUGGACCUGGCUGGGAC [hsa-miR-4535] | -11
UUUUUCAUUAUUGCUCCUGACC [hsa-miR-335-3p] | -20.3
UCCCUACCCCUCCACUCCCCA [hsa-miR-3162-3p] | -5.78
AGGCUGCGGAAUUCAGGAC [hsa-miR-604] | 29.2
UGCUGGCUCAUUUCAUAUGUGU [hsa-miR-5580-5p] | 22.1
UGCGUUUCUCCUCUUGAGCAG [hsa-miR-6854-3p] | 21.3
AAUCCUUUGUCCCUGGGUGAGA [hsa-miR-501-5p] | 22.1
UGGGGACGUAGCUGGCCAGACAG [hsa-miR-3191-3p] | 32.8
AACUGGCCCUCAAAGUCCCGCU [hsa-miR-193b-3p] | 24.4
CUGGGAGGUGUGAUAUCGUGGU [hsa-miR-3689a-3p] | 27.5
GAGGCAGAAGCAGGAUGACA [hsa-miR-1910-3p] | 25.3
UUUCUAUUUCUCAGUGGGGCUC [hsa-miR-4482-3p] | 31.6
UGAAACAUACACGGGAAACCUC [hsa-miR-494] | 34.9
CCAAAACUGCAGUUACUUUUGC [hsa-miR-548o-3p] | -18
UAGGAUUACAAGUGUCGGCCAC [hsa-miR-3159] | -5
AUUGACACCUCUGUGAGUGGA [hsa-miR-514b-3p] | 16.1
AGUUGCCUUUUUGUUCCCAUGC [hsa-miR-4423-5p] | -22.1
UCUCAGUAAGUGGCACUCUGU [hsa-miR-4797-3p] | 57.2
AAAAGUAACUGCGGUUUUUGA [hsa-miR-548ak] | -23.5
CGGGGUGGGUGAGGUCGGGC [hsa-miR-4651] | 2.27

Sequence | one-nucleolus phenotype percent effect [%]
CGGCAACAAGAAACUGCCUGAG [hsa-miR-196a-3p] | 37.8
UGGGGGGACAGGAUGAGAGGCUGU [hsa-miR-6795-5p] | 28.6
GAGGGCAGCGUGGGUGUGGCGGA [hsa-miR-4632-5p] | 0.575
AUCCCACCACUGCCACCAU [hsa-miR-1260b] | -10.3
AGGCAGGUUAUCUGGGCUG [hsa-miR-4736] | 19.8
GGGGCUGGGGCCGGGGCCGAGC [hsa-miR-762] | -31.4
AUGCGAGGAUGCUGACAGUG [hsa-miR-4737] | 35.7
GUGGAGUCCUGGGGAAUGGAGA [hsa-miR-3198] | 22
GUGUCUUUUGCUCUGCAGUCA [hsa-miR-511] | -6.61
UGCUGCCUCUCCUCUUGCCUGCAG [hsa-miR-6882-3p] | -22.8
CGGGCAUGCUGGGAGAGACUUU [hsa-miR-6862-5p] | 31.7
AAUAUUAUACAGUCAACCUCU [hsa-miR-656] | 3.93
UCACAGUGGUCUCUGGGAUUAU [hsa-miR-216a-3p] | 8.32
GUGUGCGGAAAUGCUUCUGCUA [hsa-miR-147b] | -12.4
UCGCGGUUUGUGCCAGAUGACG [hsa-miR-579-5p] | -22.2
UGCCUGGGUCUCUGGCCUGCGCGU [hsa-miR-661] | 23.1
GUGUUAAUUAAACCUCUAUUUAC [hsa-miR-2053] | -1.87
AGGGCCGAAGGGUGGAAGCUGC [hsa-miR-6877-5p] | 10.5
UGUGGUAGAUAUAUGCACGAU [hsa-miR-4536-5p] | 26.2

These sequences were tested on MCF10A (assay: percent viability (nuclei count relative to siNT); higher = more viable cells). Conditions: 20 nM; 72 h.
Protocol: as §1

Sequence | percent viability [%]
UGUAGGCAUGAGGCAGGGCCCAGG [hsa-miR-6806-5p] | 32.5
UUGGGCCCAGGAGUAAACAGGAU [hsa-miR-6773-5p] | 40.3
CUUCCAGACGCUCCGCCCCACGUCG [hsa-miR-3180-5p] | 67.4
UAGUACUGUGCAUAUCAUCUAU [hsa-miR-1278] | 73.4
GCCGGACAAGAGGGAGG [hsa-miR-4442] | 96
UUCCCUUUGUCAUCCUUCGCCU [hsa-miR-211-5p] | 75.8
ACAUACUUCUUUAUAUGCCCAU [hsa-miR-1-5p] | 47
GUUCCUGCUGAACUGAGCCAG [hsa-miR-3074-5p] | 42.2
UUUCCUACCCUACCUGAAGACU [hsa-miR-3685] | 36.6
GAGUUCUACAGUCAGAC [hsa-miR-3168] | 22.3
CGGUGAGCGCUCGCUGGC [hsa-miR-4792] | 36.6
UUCCGCCAGUCGGUGGCCGG [hsa-miR-6084] | 90.2
UGAGUGAUUGAUAGCUAUGUUC [hsa-miR-4765] | 52.9
AUAUAAUACAACCUGCUAAGUG [hsa-miR-374b-5p] | 103
UUAUAAAGCAAUGAGACUGAUU [hsa-miR-340-5p] | 21.9
AGGCCCUGUCCUCUGCCCCAG [hsa-miR-6775-3p] | 41.3
GCCCUGAACGAGGGGUCUGGAG [hsa-miR-345-3p] | 61
GAUGAUGAUGGCAGCAAAUUCUGAAA [hsa-miR-1272] | 76.8
CCUCUGGGCCCUUCCUCCAG [hsa-miR-326] | 20.2
AAUUCUGUAAAGGAAGAAGAGG [hsa-miR-4778-5p] | 74.3
GUGGACCUGGCUGGGAC [hsa-miR-4535] | 65.5
UUUUUCAUUAUUGCUCCUGACC [hsa-miR-335-3p] | 157
UCCCUACCCCUCCACUCCCCA [hsa-miR-3162-3p] | 75.9
AGGCUGCGGAAUUCAGGAC [hsa-miR-604] | 25.6
UGCUGGCUCAUUUCAUAUGUGU [hsa-miR-5580-5p] | 29.6
UGCGUUUCUCCUCUUGAGCAG [hsa-miR-6854-3p] | 23.5
AAUCCUUUGUCCCUGGGUGAGA [hsa-miR-501-5p] | 33.2
UGGGGACGUAGCUGGCCAGACAG [hsa-miR-3191-3p] | 26.7
AACUGGCCCUCAAAGUCCCGCU [hsa-miR-193b-3p] | 16.9

Reference: the supplement of paper PMC10899765
